This is an account of results in patent publication US20230293638A1 (Eli Lilly, published 2023).

Changes are numbered by the printed parent chain. Numbered stars: 1 amine (or outer) side, 2 acyl side, 3 side chain; on linkers, the order of the positions; unused ones are H or OH. Square brackets hold non-standard residues; d marks the D form. Side chains are listed from the residue outwards. Ends that are not written are not given here. * marks the point of attachment. C20 diacid = O=C(O)CCCCCCCCCCCCCCCCCCC(=O)*; C18 diacid = O=C(O)CCCCCCCCCCCCCCCCC(=O)*; αMePhe(2-F) = C[C@](N)(Cc1ccccc1F)C(=O)O; γGlu = O=C(O)[C@H](CCC(=O)[*:2])N[*:1]; αMeL = CC(C)C[C@](C)(N)C(=O)O; αMeK = C[C@](N)(CCCCN)C(=O)O; AEEA = NCCOCCOCC(=O)O; Aib = CC(C)(N)C(=O)O

First the molecules themselves.
B1: Peptide 21 (peptide)
peptide: Y[Aib]EGTFTSDYSI[αMeL]LDEK([AEEA-AEEA-γGlu-C20 diacid])AQ[αMeK]AFIEYLLEGGPSSGAPPPS-NH2
modifications: N-terminus assumed
SMILES: CC[C@H](C)[C@H](NC(=O)[C@H](Cc1ccccc1)NC(=O)[C@H](C)NC(=O)[C@](C)(CCCCN)NC(=O)[C@H](CCC(N)=O)NC(=O)[C@H](C)NC(=O)[C@H](CCCCNC(=O)COCCOCCNC(=O)COCCOCCNC(=O)CC[C@H](NC(=O)CCCCCCCCCCCCCCCCCCC(=O)O)C(=O)O)NC(=O)[C@H](CCC(=O)O)NC(=O)[C@H](CC(=O)O)NC(=O)[C@H](CC(C)C)NC(=O)[C@](C)(CC(C)C)NC(=O)[C@@H](NC(=O)[C@H](CO)NC(=O)[C@H](Cc1ccc(O)cc1)NC(=O)[C@H](CC(=O)O)NC(=O)[C@H](CO)NC(=O)[C@@H](NC(=O)[C@H](Cc1ccccc1)NC(=O)[C@@H](NC(=O)CNC(=O)[C@H](CCC(=O)O)NC(=O)C(C)(C)NC(=O)[C@@H](N)Cc1ccc(O)cc1)[C@@H](C)O)[C@@H](C)O)[C@@H](C)CC)C(=O)N[C@@H](CCC(=O)O)C(=O)N[C@@H](Cc1ccc(O)cc1)C(=O)N[C@@H](CC(C)C)C(=O)N[C@@H](CC(C)C)C(=O)N[C@@H](CCC(=O)O)C(=O)NCC(=O)NCC(=O)N1CCC[C@H]1C(=O)N[C@@H](CO)C(=O)N[C@@H](CO)C(=O)NCC(=O)N[C@@H](C)C(=O)N1CCC[C@H]1C(=O)N1CCC[C@H]1C(=O)N1CCC[C@H]1C(=O)N[C@@H](CO)C(N)=O
B2: Peptide 147 (peptide)
peptide: YXEGTXTSDYSIXLDEKAQXEFIXYLIEGGPSSGAPPPS
modifications: Aib2; αMeF(2F)6; αMeL13; K17((2-[2-(2-Amino-ethoxy)-ethoxy]-acetyl)2-(γGlu)-CO-(CH2)18-CO2H); Aib20; Aad24; C-terminal NH2
B3: Peptide 178 (peptide)
peptide: B2 peptide with Y10H, E21H
modifications: Aib2; αMeF(2F)6; αMeL13; K17((2-[2-(2-Amino-ethoxy)-ethoxy]-acetyl)2-(γGlu)-CO-(CH2)14-CO2H); Aib20; D-Glu24; C-terminal NH2
B4: Peptide 148 (peptide)
peptide: B2 peptide with X24A
modifications: Aib2; αMeF(2F)6; αMeL13; K17((2-[2-(2-Amino-ethoxy)-ethoxy]-acetyl)2-(γGlu)-CO-(CH2)18-CO2H); Aib20; C-terminal NH2
B5: Peptide 173 (peptide)
peptide: B2 peptide with Y10H, E16X, E21T
modifications: Aib2; αMeF(2F)6; αMeL13; Dap16; K17((2-[2-(2-Amino-ethoxy)-ethoxy]-acetyl)2-(γGlu)-CO-(CH2)18-CO2H); Aib20; D-Glu24; C-terminal NH2
B6: Peptide 176 (peptide)
peptide: B2 peptide with Y10H, E21T
modifications: Aib2; αMeF(2F)6; αMeL13; K17((2-[2-(2-Amino-ethoxy)-ethoxy]-acetyl)2-(εK)-CO-(CH2)16-CO2H); Aib20; D-Glu24; C-terminal NH2
B7: Peptide 150 (peptide)
peptide: B2 peptide with X24S
modifications: Aib2; αMeF(2F)6; αMeL13; K17((2-[2-(2-Amino-ethoxy)-ethoxy]-acetyl)2-(γGlu)-CO-(CH2)18-CO2H); Aib20; C-terminal NH2
B8: Peptide 172 (peptide)
peptide: B2 peptide with Y10H, E16X, E21T
modifications: Aib2; αMeF(2F)6; αMeL13; Dab16; K17((2-[2-(2-Amino-ethoxy)-ethoxy]-acetyl)2-(γGlu)-CO-(CH2)18-CO2H); Aib20; D-Glu24; C-terminal NH2
B9: Peptide 20 (peptide)
peptide: B2 peptide with X6F, E16K, E21A, X24E
modifications: Aib2; αMeL13; K17((2-[2-(2-Amino-ethoxy)-ethoxy]-acetyl)2-(γGlu)-CO-(CH2)18-CO2H); Aib20; C-terminal NH2
B10: Peptide 169 (peptide)
peptide: B2 peptide with Y10H, E21T
modifications: Aib2; αMeF(2F)6; αMeL13; K17((2-[2-(2-Amino-ethoxy)-ethoxy]-acetyl)2-(γGlu)-CO-(CH2)16-CO2H); Aib20; D-Glu24; C-terminal NH2
B11: Peptide 174 (peptide)
peptide: B2 peptide with Y10H, E21T
modifications: Aib2; αMeF(2F)6; αMeL13; K17((2-[2-(2-Amino-ethoxy)-ethoxy]-acetyl)2-CO-(CH2)18-CO2H); Aib20; D-Glu24; C-terminal NH2
B12: Peptide 152 (peptide)
peptide: B2 peptide
modifications: Aib2; αMeF(2F)6; αMeL13; K17((2-[2-(2-Amino-ethoxy)-ethoxy]-acetyl)2-(γGlu)-CO-(CH2)18-CO2H); Aib20; Aib24; C-terminal NH2
B13: Peptide 155 (peptide)
peptide: B2 peptide with Y10X, X24E
modifications: Aib2; αMeF(2F)6; cTA10; αMeL13; K17((2-[2-(2-Amino-ethoxy)-ethoxy]-acetyl)2-(γGlu)-CO-(CH2)18-CO2H); Aib20; C-terminal NH2
B14: Peptide 171 (peptide)
peptide: B2 peptide with Y10H, E16X, E21T
modifications: Aib2; αMeF(2F)6; αMeL13; Orn16; K17((2-[2-(2-Amino-ethoxy)-ethoxy]-acetyl)2-(γGlu)-CO-(CH2)18-CO2H); Aib20; D-Glu24; C-terminal NH2
B15: Peptide 168 (peptide)
peptide: B2 peptide with Y10H, E21T
modifications: Aib2; αMeF(2F)6; αMeL13; K17((2-[2-(2-Amino-ethoxy)-ethoxy]-acetyl)2-(γGlu)-CO-(CH2)18-CO2H); Aib20; D-Glu24; C-terminal NH2
B16: Peptide 149 (peptide)
peptide: B2 peptide with X24V
modifications: Aib2; αMeF(2F)6; αMeL13; K17((2-[2-(2-Amino-ethoxy)-ethoxy]-acetyl)2-(γGlu)-CO-(CH2)18-CO2H); Aib20; C-terminal NH2
B17: Peptide 157 (peptide)
peptide: B2 peptide with Y10X, X24E
modifications: Aib2; αMeF(2F)6; 3Pal10; αMeL13; K17((2-[2-(2-Amino-ethoxy)-ethoxy]-acetyl)2-(γGlu)-CO-(CH2)18-CO2H); Aib20; C-terminal NH2
B18: Peptide 151 (peptide)
peptide: B2 peptide with X24P
modifications: Aib2; αMeF(2F)6; αMeL13; K17((2-[2-(2-Amino-ethoxy)-ethoxy]-acetyl)2-(γGlu)-CO-(CH2)18-CO2H); Aib20; C-terminal NH2
B19: Peptide 153 (peptide)
peptide: B2 peptide with X24H
modifications: Aib2; αMeF(2F)6; αMeL13; K17((2-[2-(2-Amino-ethoxy)-ethoxy]-acetyl)2-(γGlu)-CO-(CH2)18-CO2H); Aib20; C-terminal NH2
B20: Peptide 179 (peptide)
peptide: Y[Aib]EGT[αMePhe(2-F)]TSDHSI[αMeL]LDEK([AEEA-AEEA-γGlu-C18 diacid])AQ[Aib]HFI[dE]YLIEGGPSSG-NH2
modifications: N-terminus assumed
SMILES: CC[C@H](C)[C@H](NC(=O)[C@H](CC(C)C)NC(=O)[C@H](Cc1ccc(O)cc1)NC(=O)[C@@H](CCC(=O)O)NC(=O)[C@@H](NC(=O)[C@H](Cc1ccccc1)NC(=O)[C@H](Cc1c[nH]cn1)NC(=O)C(C)(C)NC(=O)[C@H](CCC(N)=O)NC(=O)[C@H](C)NC(=O)[C@H](CCCCNC(=O)COCCOCCNC(=O)COCCOCCNC(=O)CC[C@H](NC(=O)CCCCCCCCCCCCCCCCC(=O)O)C(=O)O)NC(=O)[C@H](CCC(=O)O)NC(=O)[C@H](CC(=O)O)NC(=O)[C@H](CC(C)C)NC(=O)[C@](C)(CC(C)C)NC(=O)[C@@H](NC(=O)[C@H](CO)NC(=O)[C@H](Cc1c[nH]cn1)NC(=O)[C@H](CC(=O)O)NC(=O)[C@H](CO)NC(=O)[C@@H](NC(=O)[C@](C)(Cc1ccccc1F)NC(=O)[C@@H](NC(=O)CNC(=O)[C@H](CCC(=O)O)NC(=O)C(C)(C)NC(=O)[C@@H](N)Cc1ccc(O)cc1)[C@@H](C)O)[C@@H](C)O)[C@@H](C)CC)[C@@H](C)CC)C(=O)N[C@@H](CCC(=O)O)C(=O)NCC(=O)NCC(=O)N1CCC[C@H]1C(=O)N[C@@H](CO)C(=O)N[C@@H](CO)C(=O)NCC(N)=O
B21: Peptide 167 (peptide)
peptide: Y[Aib]EGT[αMePhe(2-F)]TSDHSI[αMeL]LDEK([AEEA-AEEA-γGlu-C20 diacid])AQ[Aib]TFI[dE]YLIEGGPSSG-NH2
modifications: N-terminus assumed
SMILES: CC[C@H](C)[C@H](NC(=O)[C@H](CC(C)C)NC(=O)[C@H](Cc1ccc(O)cc1)NC(=O)[C@@H](CCC(=O)O)NC(=O)[C@@H](NC(=O)[C@H](Cc1ccccc1)NC(=O)[C@@H](NC(=O)C(C)(C)NC(=O)[C@H](CCC(N)=O)NC(=O)[C@H](C)NC(=O)[C@H](CCCCNC(=O)COCCOCCNC(=O)COCCOCCNC(=O)CC[C@H](NC(=O)CCCCCCCCCCCCCCCCCCC(=O)O)C(=O)O)NC(=O)[C@H](CCC(=O)O)NC(=O)[C@H](CC(=O)O)NC(=O)[C@H](CC(C)C)NC(=O)[C@](C)(CC(C)C)NC(=O)[C@@H](NC(=O)[C@H](CO)NC(=O)[C@H](Cc1c[nH]cn1)NC(=O)[C@H](CC(=O)O)NC(=O)[C@H](CO)NC(=O)[C@@H](NC(=O)[C@](C)(Cc1ccccc1F)NC(=O)[C@@H](NC(=O)CNC(=O)[C@H](CCC(=O)O)NC(=O)C(C)(C)NC(=O)[C@@H](N)Cc1ccc(O)cc1)[C@@H](C)O)[C@@H](C)O)[C@@H](C)CC)[C@@H](C)O)[C@@H](C)CC)C(=O)N[C@@H](CCC(=O)O)C(=O)NCC(=O)NCC(=O)N1CCC[C@H]1C(=O)N[C@@H](CO)C(=O)N[C@@H](CO)C(=O)NCC(N)=O
B22: Peptide 154 (peptide)
peptide: Y[Aib]EGT[αMePhe(2-F)]TSDHSI[αMeL]LDEK([AEEA-AEEA-γGlu-C20 diacid])AQ[Aib]EFIEYLIEGGPSSGAPPPS-NH2
modifications: N-terminus assumed
SMILES: CC[C@H](C)[C@H](NC(=O)[C@H](CC(C)C)NC(=O)[C@H](Cc1ccc(O)cc1)NC(=O)[C@H](CCC(=O)O)NC(=O)[C@@H](NC(=O)[C@H](Cc1ccccc1)NC(=O)[C@H](CCC(=O)O)NC(=O)C(C)(C)NC(=O)[C@H](CCC(N)=O)NC(=O)[C@H](C)NC(=O)[C@H](CCCCNC(=O)COCCOCCNC(=O)COCCOCCNC(=O)CC[C@H](NC(=O)CCCCCCCCCCCCCCCCCCC(=O)O)C(=O)O)NC(=O)[C@H](CCC(=O)O)NC(=O)[C@H](CC(=O)O)NC(=O)[C@H](CC(C)C)NC(=O)[C@](C)(CC(C)C)NC(=O)[C@@H](NC(=O)[C@H](CO)NC(=O)[C@H](Cc1c[nH]cn1)NC(=O)[C@H](CC(=O)O)NC(=O)[C@H](CO)NC(=O)[C@@H](NC(=O)[C@](C)(Cc1ccccc1F)NC(=O)[C@@H](NC(=O)CNC(=O)[C@H](CCC(=O)O)NC(=O)C(C)(C)NC(=O)[C@@H](N)Cc1ccc(O)cc1)[C@@H](C)O)[C@@H](C)O)[C@@H](C)CC)[C@@H](C)CC)C(=O)N[C@@H](CCC(=O)O)C(=O)NCC(=O)NCC(=O)N1CCC[C@H]1C(=O)N[C@@H](CO)C(=O)N[C@@H](CO)C(=O)NCC(=O)N[C@@H](C)C(=O)N1CCC[C@H]1C(=O)N1CCC[C@H]1C(=O)N1CCC[C@H]1C(=O)N[C@@H](CO)C(N)=O

The assay addresses human GLP-1 receptor (human, UniProt P43220 24-463). Kind of assay: cell-based or functional assay.
With B1, the “hGLPIR cAMP EC50 ratio” value amounted to 0.402.

Take B2: the “hGLPIR cAMP EC50 ratio” value was determined as 1.13.

In the case of B3, the “hGLPIR cAMP EC50 ratio” value was determined as 0.00349.

Take B4: the “hGLPIR cAMP EC50 ratio” value was found to be 0.859.

B5: the “hGLPIR cAMP EC50 ratio” value came out at 0.0373.

For B6, the “hGLPIR cAMP EC50 ratio” value amounted to 0.0427.

As to B7, the “hGLPIR cAMP EC50 ratio” value turned out to be 0.79.

Turning to B8, the “hGLPIR cAMP EC50 ratio” value was 0.038.

For B9, the “hGLPIR cAMP EC50 ratio” value turned out to be 0.577.

Regarding B10, the “hGLPIR cAMP EC50 ratio” value turned out to be 0.0136.

For the molecule B11, the “hGLPIR cAMP EC50 ratio” value was found to be 0.0968.

Consider B12, for which the “hGLPIR cAMP EC50 ratio” value amounted to 0.484.

Consider B13, for which the “hGLPIR cAMP EC50 ratio” value was determined as 0.0978.

As for B14, the “hGLPIR cAMP EC50 ratio” value worked out at 0.0609.

Regarding B15, the “hGLPIR cAMP EC50 ratio” value came out at 0.0323.

Turning to B16, the “hGLPIR cAMP EC50 ratio” value turned out to be 0.484.

As for B17, the “hGLPIR cAMP EC50 ratio” value turned out to be 1.25.

As for B18, the “hGLPIR cAMP EC50 ratio” value was determined as 0.0278.

On to B19, for which the “hGLPIR cAMP EC50 ratio” value is 0.501.

B20: the “hGLPIR cAMP EC50 ratio” value came to 0.0169.

For the molecule B21, the “hGLPIR cAMP EC50 ratio” value was found to be 0.0487.

For B22, the “hGLPIR cAMP EC50 ratio” value amounted to 1.23.
